# Reference: the DeepSol protein solubility set
# Assay: soluble on expression in E. coli; label from the status in PepcDB or PDB records
row,Sequence,soluble on expression in E. coli
1,MSLALNLSKAVVGYLQVRPEEKFTARQIAEWVFATYPAECQEKRANSRGDYIKSDADLVQQLVAEISSQRPRMQMKHPALKTTEGRPRKYYYSEKSDSAEVAAAEGEGATAAADIGTSMLDEHALYPLLSQYLWEEFGVFSKRINEKRSSNKRGPNGNRWLYPDMVGMQDLGADWHREVRDCVKQYSDKRTKLWSFEVKLLINRSNIRECFFQAVSNSSWSNFGYLVAAEVSGQETLKELRMLFAAHGIGFIRLDVDNPADSQVLIPARERDAIDWDMANRLATENRDFLNYVKQVKQFYQTGEARFKDWDVPEEYSIQEGHHHHHH,soluble
2,MSLVINAPFKVIASKVTAEVLKSVNSKLGSYSTNYATSSEARATNVAVATRSIDGKVVMPGETFSFNEVVGERTRARGYKEAGVIVNQKLESGFGGGVCQVSSTLYNALLRSNIKMTERVHHTFPSSYVPTGLDATVDWGNIDLKFKNTFKYPIYIQGYTGGREVGFNIYSNSELARTRCEITSEVYKKIEPRTEYINDSNLPAGAMEVVKSGHTGYRVKSYRSIYKDGKFVAKELIANDYYVPVNGVVKRGTREGHHHHHH,soluble
3,MRLRNKPWAKDKIAAYPQYVIPDPETKRGRWRELFGRDRPIHVEIGTGKGKFITEMAKLHPDVNFIGIELYPSVLVSALDKLIESGLANVKLLNANAKDLTAFFADGEVSRIYLNFSDPWPKKRHEKRRLTYRDFLALYDRILAEDGDIHLKTDNQSFFEYSLVSLSQYGFVLASVQLDLHQSGMTDNVMTEYEEKFSSKGNRIYPMRGGAPAAAVVIGPNRLVGSFSISD,not soluble
4,MGNTLGLAPMGTLPRRSPRREEPLPNPGSFDELHRLCKDVFPAQMEGVKLVVNKVLSSHFQVAHTIHMSALGLPGYHLHAAYAGDWQLSPTEVFPTVVGDMDSSGSLNAQVLLLLAERLRAKAVFQTQQAKFLTWQFDGEYRGDDYTATLTLGNPDLIGESVIMVAHFLQSLTHRLVLGGELVYHRRPGEEGAILTLAGKYSAVHWVATLNVGSGGAHASYYHRANEQVQVGVEFEANTRLQDTTFSFGYHLTLPQANMVFRGLVDSNWCVGAVLEKKMPPLPVTLALGAFLNHWRNRFHCGFSITVG,soluble
5,MAHHHHHHMAYRVQKTTPAVVDNGTSSDGDEAQRASHKTAKTSSPSPIPKPARRKAPIADSDSDDESATRPAAKTTSPKFALKKAAVDSDSSDEDEPVPKNSSAGKRPAPRAEEAPAQRAARTESEGAARRTPHHLNEDGTFRRFQRIDPAKVTFDADALRDNRPGREHLVLRQNQEMMRTKGKGFNKLKQKNKGKFYGAGVDLSVRAYQFPDSDDE,soluble
6,MGSDKIHHHHHHSKNSLPILDSFLFNLEGNTLTVTASDAETRLVTSVDVMNAQGAGLFAVSAKILLDPLKELPEQPLTFDINDENLEIFIHFQNGKYNFIGQKGDTYPQQKPLNDNAISISMDAQMLLNGISRSLFATADDELRPVMNGVYFDIHTDDLTFVASDGHKLVRLRNLAVKSPERASFILPKKPANLLKNLLAKESEQVLIKFDDNNAYITCTNFEMVCRLIEGRYPNYNSVIPQENPFKVTIDRISFLNALKRVSVFSNPASSLVKLHLKDSLITVSAQDIDFSTSAEERIVCQFDGTELSIGFKATYLIEILGNISSEEVVLELADPSRAGLIVPSENDEDEDLLMLLMPMMLND,not soluble
7,MSLATIKDIAKEVGCSISTVSRVLNNDPTLSVGDETRSRIFEVAEEIGYRKKTLKTLVKNIAFLYWLTDNEELEDVYFQTMRVEIEKKARENNIELTTYKLEGGIEKIPLDIDGFIAVGSFMNRELEYLRELTPHGVFIDSTPDPAHYDSVRPDLAQITRQAVEVLVEQGHEKIGFIGGTYHNLDTDAEEMDGRERAFRQTMEERDLLREDFIFCRRGFSVDNGHYLMNQAVEQLGEELPTAFYVAADPIAVGCLQVLNEQQIEIPKRVSLISVNDTSISKYVSPPLTTFHIDLEEICQNAIQLLLERVLKKRNIVKTVYIGAELITRKSTEGHHHHHH,soluble
8,MEIKLEEILKKQPLYSGKAKSIYEIDDDKVLIEFRDDITAGNGAKHDVKQGKGYLNALISSKLFEALEENGVKTHYIKYIEPRYMIAKKVEIIPIEVIVRNIAAGSLCRRYPFEEGKELPFPIVQFDYKNDEYGDPMLNEDIAVALGLATREELNKIKEIALKVNEVLKKLFDEKGIILVDFKIEIGKDREGNLLVADEISPDTMRLWDKETRDVLDKDVFRKDLGDVIAKYRIVAERLGLL,soluble
9,MGHHHHHHSHMKEDKEVQTGYMNAQIEIIPCKICGDKSSGIHYGVITCEGCKGFFRRSQQSNATYSCPRQKNCLIDRTSRNRCQHCRLQKCLAVGMSRDAVKFGRMSKKQRDSLYAEVQKHRMQQQQRDHQQQPG,soluble
10,MAHHHHHHAYLPPNMAERLQMSSSSTEPTTTSSMLPAPHSSANMRHIEGLVVVPGVVKVSRSDVASQYTMPHTNNAPLLFSEPEHRAVDNSSGSNDAQLEPKDPHLGLMPHCLSCTLLTSAGAQEPDDVYGRSMPSSSAVGAVTTELECAVVPTLHASFTPGVSTSIMPAPTEAHSACGSRPLQQPRWGGNYDSGSQCVSFRGADRSNNVSGCGLRLVGDDVEWLQGSFEDSASSPREEVQLSWGHLQRQPCAGKSSAARAVPPALHDVREGTGGEKVLAAHHRFERAVQPQTQRQGVFPSADQENCQAAAMLWAAQQMAVFD,soluble
11,MVIILRHVRVFNGVNECDIYLIGTAHVSKDSIEEVEKIISSVSPEGIAVELDDRRFFSLITNEEKKVDLKKVLKEGNFLKFFIYLILANSQKKIGESFGIKPGSEMKKAIEIASKYGLPIYLIDRDIDITLSRLMDRMTFKEKMKIFWELLNSDEEDLELDDDLLNDMVKNPEKFIKLLKEISPTIYEVLVDERDRFMAKRLFELSKNKNSLVAVVGAGHVEGIVRYLKKLENGNDIDLMELIKVKKRK,not soluble
12,MKTSDIHDVAIVGAGPAGLSAAYELIRTGFTPLVLERTPAVGDVWRNHYDGLRLNSGRFFSALPGSKFPLSAGGWPSRDEVVSLLETFPARGGFTVQTGIEVEKVSHDRERDIWLITSNDNRQFESRAVVIAAGANRIPIIPEWEGKNTFTGTIIHSSQFKSAQDYAGKHVLVVGSGNSAAEIASRLAKYADSVTMSVRTPPQILPKSIYGIPLIGIGVWTRYLPRALVDGLLNFLRRTMIGDLSVYGLPSPTISMSKQYAINNVVPILYGPFIDDVRSGRIKIVGPVQKISGGTVEVLSTVESALNGDQATTTLQPDIIVAGTGFRTGFPELIQVPGITDEKGRSKISGDQEFKGAPRLYFIGQINPLSGQLREIRLEAGRIARKLDKQLRAKLEHHHHHH,soluble
13,MGHHHHHHSHMDDPLLVELQAEDYWYEAYNMRTGARGVFPAYYAIEVTKEPEHMAALAKNSDWVDQFRVKFLGSVQVPYHKGNDVLCAAMQKIATTRRLTVHFNPPSSCVLEISVRGVKIGVKADDSQEAKGNKCSHFFQLKNISFCGYHPKNNKYFGFITKHPADHRFACHVFVSEDSTKALAESVGRAFQQFYKQFVEYTCPT,soluble
14,MGHHHHHHGGHMSLQRGCDGCKQNQSREPATIDGFMPKAQESIMGQQKQRNRRWVLASRPHGAPVPENFRLEEDDVATPGEGQVLLRTVYLSLDPYMRGRMSDEPSYSPPVDIGGVMVGGTVSRVVESNHPDYQSGDWVLGYSGWQDYDISSGDDLVKLGDHPQNPSWSLGVLGMPGFTAYMGLLDIGQPKEGETLVVAAATGPVGATVGQIGKLKGCRVVGVAGGAEKCRHATEVLGFDVCLDHHADDFAEQLAKACPKGIDIYYENVGGKVFDAVLPLLNTSARIPVCGLVSSYNATELPPGPDRLPLLMATVLKKRIRLQGFIIAQDYGHRIHEFQREMGQWVKEDKIHYREEITDGLENAPQTFIGLLKGKNFGKVVIRVAGDDEGGS,soluble
15,MAYEISKKVLHIVGKTNATYKLIEEGDKILLGLSGGKDSIMLACILARMQKHAPFKFDFKAVTVHYGLGEDLKWLSDLCQEQGIEHEIIYTQIAATINEKRREKSSFCSFCSRLRRGTLYSKALEEGYNKVAIAHHLDDAVESFFMNFTYNGSLRSMPPIYRAENGLLVIRPLIKVREASSIHFVTSQNIPVAPDCNCPAKQPTSDKPPIARLATKNFLKEMQNLHPRFFDSLENAFNNVQANSFSDAKYLDALEHHHHHH,soluble
16,MGSDKIHHHHHHMLSRTAENLFWLARYVERAEYLARTIEATLRVTALPSAYIGKTNEWDSALLTAGVGGNFYNFHDEANEQSVVDYLAFSSDNPSSIRNCIENARLNARSVRTALTGEMWDTLNSAWIELQEAWGKGTKTREDLTRFLRFVQEISLRFDGSAYRTMLRNDAYWFSRLGLHLERADNTARILDVKYHVLLPEEEHVGGPLDYYQWSSILRSVSALTAYHWVYRETLKPWLIADLLILNDTLPRSLASCYGNLTRNLDNIGVAYGRHGAAQRHARGVRNRLEHSKMDDIFQRGVHEFIQEFIADNARLGEVIAKQYLI,not soluble
17,GPGSMYVGCVGKDKHGDQIRSAAEADGTTMELEVSSDKRSGLCVVCRDGNSRTLVVHPSSASSLRDDFVSSAAAQEGQRSAKTVYTTAYASVVRVRQTLQLMTSSRCHTLPDGLKQLAAMGLANQRVLDDFGEGLVDVLGKLDIIIGNPEEMYDLAMMLQWVPSEMSDMVLAKKIATEMMCDRHGVRRVIMTRGAEPIIYAASAGESGEVPVVATCAHSAKLLATGAGDAFAGGFLAAMAAKPDDVAFCCRLSAQAATFMINHSLVTLRTDEACLAELQT,not soluble
18,MGSDKIHHHHHHMKERILQEIKTRVNRKSWELWFSSFDVKSIEGNKVVFSVGNLFIKEWLEKKYYSVLSKAVKVVLGNDATFEITYEAFEPHSSYSEPLVKKRAVLLTPLNPDYTFENFVVGPGNSFAYHAALEVAKHPGRYNPLFIYGGVGLGKTHLLQSIGNYVVQNEPDLRVMYITSEKFLNDLVDSMKEGKLNEFREKYRKKVDILLIDDVQFLIGKTGVQTELFHTFNELHDSGKQIVICSDREPQKLSEFQDRLVSRFQMGLVAKLEPPDEETRKSIARKMLEIEHGELPEEVLNFVAENVDDNLRRLRGAIIKLLVYKETTGKEVDLKEAILLLKDFIKPNRVKAMDPIDELIEIVAKVTGVPREEILSNSRNVKALTARRIGMYVAKNYLKSSLRTIAEKFNRSHPVVVDSVKKVKDSLLKGNKQLKALIDEVIGEISRRALSG,not soluble
19,MTKTQLVCDKNQLNWGLKAAKAIAGKSPYDVVQMRVSPDRDYLYICAVNAEATLVAKVELLVANISSEEDEIITIDKAKIPALILATAETGKKSEDSRPMAGICIRGKEVDFTDENGAGRGVDLTTIHRNDSAEIGDPVRTIIRVKQ,not soluble
20,VIIPDINLLLYAVITGFPQHRRAHAWWQDTVNGHTRIGLTYPALFGFLRIATSARVLAAPLPTADAIAYVREWLSQPNVDLLTAGPRHLDIALGLLDKLGTASHLTTDVQLAAYGIEYDAEIHSSDTDFARFADLKWTDPLRE,not soluble
21,MQEYTNHSDTTFALRNISFRVPGRTLLHPLSLTFPAGKVTGLIGHNGSGKSTLLKMLGRHQPPSEGEILLDAQPLESWSSKAFARKVAYLPQQLPPAEGMTVRELVAIGRYPWHGALGRFGAADREKVEEAISLVGLKPLAHRLVDSLSGGERQRAWIAMLVAQDSRCLLLDEPTSALDIAHQVDVLALVHRLSQERGLTVIAVLHDINMAARYCDYLVALRSGEMIAQGTPAEIMRGETLEMIYGIPMGILPHPAGAAPVSFVY,not soluble
22,MRRKMERIALIEDDKDLAFLVKLNLEREGFEVEHFERATPFFKFISENSVDLILIDIMLPDLDGFRIANFLKSRADLKEIPVIFITAKGEEEDKLKGFELGADDYITKPFSMKELIARVRAVLKRYKKVSESKVLKYEGVELDTERQKLFVDGREVYLTPAEFKILKTLMENFGRPVSRSSLVEKLWDYERETTERAIDVHVKHIRDKLGKYKGLIKTVRGVGYKFEN,soluble
